Experimental findings from IntAct's records for PubMed 30721249 are described below.

B1: Oxysterol-binding protein-related protein 1 (Homo sapiens), Q9BXW6 (parent)
chain: MNTEAEQQLLHHARNGNAEEVRQLLETMARNEVIADINCKGRSKSNLGWTPLHLACYFGHRQVVQDLLKAGAEVNVLNDMGDTPLHRAAFTGRKELVMLLLEYNADTTIVNGSGQTAKEVTHAEEIRSMLEAVERTQQRKLEELLLAAAREGKTTELTALLNRPNPPDVNCSDQLGNTPLHCAAYRAHKQCALKLLRSGADPNLKNKNDQKPLDLAQGAEMKHILVGNKVIYKALKRYEGPLWKSSRFFGWRLFWVVLEHGVLSWYRKQPDAVHNIYRQGCKHLTQAVCTVKSTDSCLFFIKCFDDTIHGFRVPKNSLQQSREDWLEAIEEHSAYSTHYCSQDQLTDEEEEDTVSAADLKKSLEKAQSCQQRLDREISNFLKMIKECDMAKEMLPSFLQKVEVVSEASRETCVALTDCLNLFTKQEGVRNFKLEQEQEKNKILSEALETLATEHHELEQSLVKGSPPASILSEDEFYDALSDSESERSLSRLEAVTARSFEEEGEHLGSRKHRMSEEKDCGGGDALSNGIKKHRTSLPSPMFSRNDFSIWSILRKCIGMELSKITMPVIFNEPLSFLQRLTEYMEHTYLIHKASSLSDPVERMQCVAAFAVSAVASQWERTGKPFNPLLGETYELVRDDLGFRLISEQVSHHPPISAFHAEGLNNDFIFHGSIYPKLKFWGKSVEAEPKGTITLELLEHNEAYTWTNPTCCVHNIIVGKLWIEQYGNVEIINHKTGDKCVLNFKPCGLFGKELHKVEGYIQDKSKKKLCALYGKWTECLYSVDPATFDAYKKNDKKNTEEKKNSKQMSTSEELDEMPVPDSESVFIIPGSVLLWRIAPRPPNSAQMYNFTSFAMVLNEVDKDMESVIPKTDCRLRPDIRAMENGEIDQASEEKKRLEEKQRAARKNRSKSEEDWKTRWFHQGPNPYNGAQDWIYSGSYWDRNYFNLPDIY

In this experiment the parent is B1. Particulars: with rab7a_human RAB7A.
Consider F58E, for which the “effect of a mutation on the interaction” value is reported as “disrupting interaction strength”.
